Data taken from patent US6030780, “Purified Stat proteins and methods of purifying thereof” (The Rockefeller University).

How the values were obtained:
[1] = target: Stat1tc, phosphorylated Tyr701 (Homo sapiens) (UniProt P42224); assay: EMSA
[2] = target: T1, Stat1alpha, phosphorylated Tyr701 (Homo sapiens, UniProt P42224 P42224:1-750); assay: EMSA; 2x(dimer) complex stable, >30 min for partial displacement by 100x competitor; conditions: tags: baculovirus/Sf9; NEM-alkylated; phosphorylated in vitro by EGF-receptor kinase; chain copies: 2; label: 32P; protruding 5'-TCC; two tandem sites
Protocol: Under the reaction conditions described above, each oligonucleotide (at 2×10^-9 M or otherwise stated) was mixed with 0.55×10^-9 M dimer of purified phosphorylated Stat1 protein. The reaction volume was scaled up to 100 μl. The reaction was incubated for 5–15 min at room temperature and for time zero, an aliquot (10 μl) was removed and loaded directly onto a pre-run polyacrylamide gel (see above). Afterwards, a 100×molar excess of homologous unlabelled DNA (in less than 1% of the reaction volume) was added. At subsequent time points (indicated in FIGS. 5C–5D, and 7) 10 μl aliquots were withdrawn and also loaded onto the running gel (at 10 V/cm). After entering the final time point (after 30–45 min), electrophoresis was continued at 20 V/cm until the unbound labelled DNA-fraction reached the bottom of the gel. Gels were dried, exposed to X-ray film and labelled protein/DNA complexes and unbound labelled DNA were quantitated as described above. The half life was determined from a semi-log plot of the numerical data (shifted radioactivity over shifted radioactivity at time zero versus time). For many sequences studied, the half life was too short ([…]) to be determined by EMSA. All experiments were performed at least twice with the different oligonucleotides. […]

[3] = target: Stat1beta, phosphorylated Tyr701 (Homo sapiens, UniProt P42224-2 P42224-2:1-712); assay: EMSA; 2x(dimer) complex stabilized as with Stat1alpha; conditions: tags: baculovirus/Sf9; NEM-alkylated; phosphorylated in vitro by EGF-receptor kinase; chain copies: 2; label: 32P; protruding 5'-TCC; two tandem sites
[4] = target: T1, Stat1alpha, phosphorylated Tyr701; assay: EMSA; binding unaffected by NEM alkylation; no difference from Stat1tc in off-rate; conditions: tags: baculovirus/Sf9; NEM-alkylated; phosphorylated in vitro by EGF-receptor kinase; chain copies: 2; label: 32P; protruding 5'-TCC
Text: Figure 3A: FIG. 3A. DNA binding of purified phosphorylated Stat1α (lane 1) and Stat1tc (lane 2) using as a probe the radioactively labelled cfosWT sequence. Binding reactions contained equimolar amounts of the respective proteins. The position of migration of the free DNA probe (free) and the protein/DNA complex (bound) is indicated. Note the presence of a slower migrating band only with the full length Stat1α, lane 1 (see also FIG. 3B). Figure 3B: FIG. 3B. Influence of cysteine alkylation on the DNA binding activity of Stat1α. A mixture of phosphorylated and unphosphorylated protein (0.23 µM final; ~15% phosphoprotein) was reacted in the presence of 0.8 mM DTT and the indicated concentrations of N-ethyl-maleimide (NEM) for 20 min at room temperature in a volume of 12.5 µl. The reaction was stopped with DTT (final concentration of 10 mM) followed by the addition of 1.5 pmoles of labelled probe (cfosM67). Samples were resolved on a 4.5% native polyacrylamide gel. (M) denotes the position of bromophenol blue (lower) and xylene cyanol (upper) markers.
Electrophoretic mobility shift assays (EMSA) (Fried and Crothers, 1981; Garner and Revzin, 1981) were used to test DNA binding of tyrosine phosphorylated Stat1α and Stat1tc. […] In addition, the DNA binding ability of homodimeric phosphorylated Stat1α or its truncated form was highly resistant to up to 2 Molar monovalent salt concentrations.

[5] = target: T1, Stat1alpha, phosphorylated Tyr701; assay: EMSA; stabilization indistinguishable from 10 bp spacing; conditions: tags: baculovirus/Sf9; NEM-alkylated; phosphorylated in vitro by EGF-receptor kinase; chain copies: 2; label: 32P; protruding 5'-TCC; two tandem sites
Protocol: Under the reaction conditions described above, each oligonucleotide (at 2×10^-9 M or otherwise stated) was mixed with 0.55×10^-9 M dimer of purified phosphorylated Stat1 protein. The reaction volume was scaled up to 100 μl. The reaction was incubated for 5–15 min at room temperature and for time zero, an aliquot (10 μl) was removed and loaded directly onto a pre-run polyacrylamide gel (see above). Afterwards, a 100×molar excess of homologous unlabelled DNA (in less than 1% of the reaction volume) was added. At subsequent time points (indicated in FIGS. 5C–5D, and 7) 10 μl aliquots were withdrawn and also loaded onto the running gel (at 10 V/cm). After entering the final time point (after 30–45 min), electrophoresis was continued at 20 V/cm until the unbound labelled DNA-fraction reached the bottom of the gel. Gels were dried, exposed to X-ray film and labelled protein/DNA complexes and unbound labelled DNA were quantitated as described above. The half life was determined from a semi-log plot of the numerical data (shifted radioactivity over shifted radioactivity at time zero versus time). For many sequences studied, the half life was too short ([…]) to be determined by EMSA. All experiments were performed at least twice with the different oligonucleotides.
Figure 7B: FIG. 7B. […]

[6] = target: T1, Stat1alpha, phosphorylated Tyr701; assay: EMSA; apparent Keq, dimer; 40 mM KCl, 10 mM MgCl2, 10 mM CaCl2, RT; complex half-life <0.5 min; conditions: tags: baculovirus/Sf9; NEM-alkylated; phosphorylated in vitro by EGF-receptor kinase; chain copies: 2; label: 32P; protruding 5'-TCC

Sequence of Stat1tc, phosphorylated Tyr701 (Homo sapiens) (P42224 whole entry): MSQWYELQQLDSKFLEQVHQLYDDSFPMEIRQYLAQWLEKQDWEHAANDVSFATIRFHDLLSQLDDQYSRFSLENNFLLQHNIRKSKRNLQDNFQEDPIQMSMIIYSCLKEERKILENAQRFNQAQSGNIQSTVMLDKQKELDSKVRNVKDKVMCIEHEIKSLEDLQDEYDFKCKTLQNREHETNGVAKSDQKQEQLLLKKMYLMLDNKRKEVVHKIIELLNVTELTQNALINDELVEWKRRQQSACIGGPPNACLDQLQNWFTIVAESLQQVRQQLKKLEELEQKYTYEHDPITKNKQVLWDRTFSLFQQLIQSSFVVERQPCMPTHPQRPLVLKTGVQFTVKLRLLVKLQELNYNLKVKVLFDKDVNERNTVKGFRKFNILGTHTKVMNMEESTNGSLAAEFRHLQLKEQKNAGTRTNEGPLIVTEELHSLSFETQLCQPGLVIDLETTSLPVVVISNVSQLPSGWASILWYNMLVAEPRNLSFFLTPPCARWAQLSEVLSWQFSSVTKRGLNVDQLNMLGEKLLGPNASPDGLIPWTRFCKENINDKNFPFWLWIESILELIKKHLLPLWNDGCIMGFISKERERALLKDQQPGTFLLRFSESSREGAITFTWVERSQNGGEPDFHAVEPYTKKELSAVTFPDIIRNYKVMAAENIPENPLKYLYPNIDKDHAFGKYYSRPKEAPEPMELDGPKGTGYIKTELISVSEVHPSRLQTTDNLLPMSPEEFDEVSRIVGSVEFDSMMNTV
T1 sequence (P42224 whole entry, one chain of several): as the sequence (P42224 whole entry) above
Sequence of Stat1beta, phosphorylated Tyr701 (P42224 1-712, one chain of several): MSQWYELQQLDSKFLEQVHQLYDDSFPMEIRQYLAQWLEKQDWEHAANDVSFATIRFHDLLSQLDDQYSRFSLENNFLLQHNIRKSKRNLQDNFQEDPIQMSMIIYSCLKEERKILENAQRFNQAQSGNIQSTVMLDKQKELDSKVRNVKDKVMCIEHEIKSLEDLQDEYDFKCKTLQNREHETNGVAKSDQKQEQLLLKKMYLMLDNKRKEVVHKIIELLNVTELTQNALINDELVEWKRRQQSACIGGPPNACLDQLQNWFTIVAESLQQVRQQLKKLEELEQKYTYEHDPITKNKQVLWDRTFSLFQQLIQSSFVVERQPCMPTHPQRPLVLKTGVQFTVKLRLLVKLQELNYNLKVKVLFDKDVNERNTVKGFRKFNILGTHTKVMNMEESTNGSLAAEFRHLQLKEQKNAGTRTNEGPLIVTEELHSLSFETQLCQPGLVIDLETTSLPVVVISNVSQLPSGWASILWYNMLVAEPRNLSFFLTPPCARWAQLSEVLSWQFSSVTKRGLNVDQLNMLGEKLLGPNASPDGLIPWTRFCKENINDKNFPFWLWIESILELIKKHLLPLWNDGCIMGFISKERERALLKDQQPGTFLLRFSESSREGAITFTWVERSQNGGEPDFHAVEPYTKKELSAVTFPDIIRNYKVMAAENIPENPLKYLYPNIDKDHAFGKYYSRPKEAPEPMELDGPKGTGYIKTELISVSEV

Question: For “GTATTCCTGTAAGATCT (double strand) [Ly6E]”, which Kd ([1]; dimer concentration at half saturation, weak site) is on record?
Answer: The Kd was 1 nM.

Question: “GTATTCCCGTCAATGCA (double strand) [cfosWT]” was tested. Which Kd ([1]; apparent Keq, dimer, 40 mM KCl, 10 mM MgCl2, 10 mM CaCl2, RT) did it give?
Answer: The Kd was 1 nM.

Question: For “GATTTCCCGTAAATCAT (double strand) [cfosM67]”, which Kd ([1]; stated as same result for several oligonucleotides, complex half-life about 3 min (FIG. 5D)) is on record?
Answer: Its Kd is 1 nM.

Question: GTTGTTCCGGGAAAAGG (double strand) [S1] was tested. Which Kd ([1]; dimer concentration at half saturation, strong site) did it give?
Answer: The Kd was 1 nM.

B1: 2x cfosWT (10 bp spacing) (dsDNA)
DNA 1: AGTCAGTTCCCGTCAATGCATCAGGTTCCCGTCAATGCAT
DNA 2: ATGCATTGACGGGAACCTGATGCATTGACGGGAACTGACT
Question: Does B1 bind [2]?
Answer: Result: binds

Question: Does B1 bind [3]?
Answer: Result: binds

B2: cfosM67 (dsDNA)
DNA 1: GATTTCCCGTAAATCAT
DNA 2: ATGATTTACGGGAAATC
Question: Does B2 bind [4]?
Answer: Result: binds

B3: 2x cfosWT (15 bp spacing) (dsDNA)
DNA 1: AGTCAGTTCCCGTCAATGATCGCTACAGAGTTCCCGTCAAGCA
DNA 2: TGCTTGACGGGAACTCTGTAGCGATCATTGACGGGAACTGACT
Question: Does B3 bind [5]?
Answer: Result: binds

B4: cfosWT (dsDNA)
DNA 1: GTATTCCCGTCAATGCA
DNA 2: TGCATTGACGGGAATAC
Question: Which Kd [6] does the source give for B4 here?
Answer: The Kd was roughly 1 nM.
